Among the data in US20150232570A1 (ONCOMED PHARMACEUTICALS, published 2015) are Kd values, retold here.

The chains are these.
T1: recombinant human NOTCH1 protein (human, UniProt P46531 1426-1731, limits assumed)
T1 construct: NOTCH1 proteins'
T1 sequence (looked up): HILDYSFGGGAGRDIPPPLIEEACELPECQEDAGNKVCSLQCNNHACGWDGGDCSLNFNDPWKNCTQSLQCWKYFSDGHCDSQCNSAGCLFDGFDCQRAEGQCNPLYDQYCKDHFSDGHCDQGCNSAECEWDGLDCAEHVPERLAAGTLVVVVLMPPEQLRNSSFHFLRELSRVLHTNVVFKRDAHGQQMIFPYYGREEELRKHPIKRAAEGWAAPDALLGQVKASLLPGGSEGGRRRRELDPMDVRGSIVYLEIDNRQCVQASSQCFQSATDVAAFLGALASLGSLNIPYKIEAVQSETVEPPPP

B1: humanized antibody 52M51-H4L3 (antibody, human IgG2, lambda, V domains shown)
VH: QVQLVQSGAEVKKPGASVKISCKVSGYTLRGYWIEWVRQAPGKGLEWIGQILPGTGRTNYNEKFKGRVTMTADTSTDTAYMELSSLRSEDTAVYYCARFDGNYGYYAMDYWGQGTTVTVSS
VL: SQAVVTQEPSLTVSPGGTVTLTCRSSTGAVTTSNYANWFQQKPGQAPRTLIGGTNNRAPGVPARFSGSLLGGKAALTLSGAQPEDEAEYYCALWYSNHWVFGGGTKLTVLG
notes: Human IgG2 heavy chain and lambda (IgLC1) light chain; also called OMP-52M51; ATCC PTA-9549
B2: humanized antibody 52M51-H4L4 (antibody, human IgG2, lambda, V domains shown)
VH: QVQLVQSGAEVKKPGASVKISCKVSGYTLRGYWIEWVRQAPGKGLEWIGQILPGTGRTNYNEKFKGRVTMTADTSTDTAYMELSSLRSEDTAVYYCARFDGNYGYYAMDYWGQGTTVTVSS
VL: SQTVVTQEPSFSVSPGGTVTLTCRSSTGAVTTSNYANWYQQTPGQAPRTLIGGTNNRAPGVPDRFSGSILGNKAALTITGAQADDESDYYCALWYSNHWVFGGGTKLTVLG
notes: Human IgG2 heavy chain and lambda (IgLC1) light chain
B3: murine monoclonal antibody 52M51 (antibody, mouse IgG1, V domains shown)
VH: QVQLQQSGAELMKPGASVKISCKAAGYTMRGYWIEWIKQRPGHGLEWIGQILPGTGRTNYNEKFKGKATFTADTSSNTANMQLSSLTSEDSAVYYCARFDGNYGYYAMDYWGQGSSVTVSS
VL: QAVVTQESALTTSPGETVTLTCRSSTGAVTTSNYANWVQEKPDHLFTGLIGGTNNRAPGVPARFSGSLIGDKAALTITGAQTEDEAIYFCALWYSNHWVFGGGTKLTVLG
notes: Mouse antibody purified from hybridoma supernatant; also called 52M51 anti-NOTCH1 antibody; ATCC PTA-9405

For this assay, the target named is T1, recombinant human NOTCH1 protein. In words: SPR (Biacore 2000), NOTCH1 protein amine-coupled to chip, IgG injected. On the procedure: The affinities for human and mouse NOTCH11 were determined using a Biacore 2000 instrument. Briefly, recombinant human and mouse NOTCH1 proteins were immobilized on a CMS chip using standard amine based chemistry (NHS/EDC). Different antibody concentrations were injected over the protein surfaces and kinetic data were collected over time. The data was fit using the simultaneous global fit equation to yield dissociation constants (KD, nM) for each NOTCH1 protein (Table 2).
By Kd is commonly meant the free concentration of one partner at which half of the binding sites on the other are occupied at equilibrium, for simple one-to-one binding. As to B1, the Kd was 4.33 nM.
With B2 the figure was 7.35 nM; with B3, 2.86 nM.
